Molecular target: extracellular matrix (ECM; BD Matrigel)
Test: ECL on Matrigel-coated plate, signal divided by that of MRAH-G1d/MRAL-k0

Binder	ECM binding ratio (standard = 1) (ratio to standard antibody)
TR01H082-E2702GsKsc/GCH065-E2704sEpsc/L0011-k0 (bispecific antibody, human IgG4 S228P, kappa, N297A) heavy 1: QVQLVESGGGLVQPGRSLRLSCAASGFTFSNAWMHWVRQAPGKGLEWVAQIKDKSQNYATYYAESVKGRFTISRDDSKNSLYLQMNSLKTEDTAVYYCRYVHYAAGYGVDAWGQGTTVTVSSASTKGPSVFPLAPCSRSTSESTAALGCLVKDYFPEPVTVSWNSGALTSGVHTFPAVLQSSGLYSLSSVVTVPSSSLGTKTYTCNVDHKPSNTKVDKRVESKYGPPCPPCPAPEFRGGPKVFLFPPKPKDTLMISRTPEVTCVVVDVSQEDPEVQFNWYVDGVEVHNAKTKPREEQFASTYRVVSVLTVLHQDWLNGKEYKCKVSNKGLPSSIEKTISKAKGQPREPQVYTLPPSQKEMTKNQVSLTCLVKGFYPSDIAVEWESNGQPENNYKTTPPVLDSDGSFFLYSKLTVDKSRWQEGNVFSCSVMHEALHNRYTQKSLSLSP heavy 2: QVQLVQSGAEVKKPGASVTVSCKASGYTFTDYEMHWIRQPPGEGLEWIGAIDGPTPDTAYSEKFKGRVTLTADKSTSTAYMELSSLTSEDTAVYYCTRFYSYTYWGQGTLVTVSSASTKGPSVFPLAPCSRSTSESTAALGCLVKDYFPEPVTVSWNSGALTSGVHTFPAVLQSSGLYSLSSVVTVPSSSLGTQTYTCNVDHKPSNTKVDKRVESKYGPPCPPCPAPEFRGGPKVFLFPPKPKDTLMISRTPEVTCVVVDVSQEDPEVQFNWYVDGVEVHNAKTKPREEQFASTYRVVSVLTVLHQDWLNGKEYKCKVSNKGLPSSIEKTISKAKGQPREPQVYTLPPSQEEMTKNQVSLTCLVKGFYPSDIAVEWESNGQPENNYKTTPPVLDSDGSFFLYSKLTVDKSRWQEGNVFSCSVMHEALHNHYTQESLSLSP light: DIVMTQSPLSLPVTPGEPASISCRSSQPLVHSNRNTYLHWYQQKPGQAPRLLIYKVSNRFSGVPDRFSGSGSGTDFTLKISRVEAEDVGVYYCGQGTQVPYTFGQGTKLEIKRTVAAPSVFIFPPSDEQLKSGTASVVCLLNNFYPREAKVQWKVDNALQSGNSQESVTEQDSKDSTYSLSSTLTLSKADYEKHKVYACEVTHQGLSSPVTKSFNRGEC	1.7
TR01H113-E2702GsKsc/GCH094-E2704sEpsc/L0011-k0 (bispecific antibody, human IgG4 S228P, kappa, N297A) heavy 1: QVQLVESGGGVVQPGGSLRLSCAASGFTFSNAWMHWVRQAPGKGLEWVAQIKDKSQNYATYVAESVKGRFTISRADSKNSIYLQMNSLKTEDTAVYYCRYVHYAAGYGVDIWGQGTTVTVSSASTKGPSVFPLAPCSRSTSESTAALGCLVKDYFPEPVTVSWNSGALTSGVHTFPAVLQSSGLYSLSSVVTVPSSSLGTKTYTCNVDHKPSNTKVDKRVESKYGPPCPPCPAPEFRGGPKVFLFPPKPKDTLMISRTPEVTCVVVDVSQEDPEVQFNWYVDGVEVHNAKTKPREEQFASTYRVVSVLTVLHQDWLNGKEYKCKVSNKGLPSSIEKTISKAKGQPREPQVYTLPPSQKEMTKNQVSLTCLVKGFYPSDIAVEWESNGQPENNYKTTPPVLDSDGSFFLYSKLTVDKSRWQEGNVFSCSVMHEALHNRYTQKSLSLSP heavy 2: QVQLVQSGAEVKKPGASVTVSCKASGYTFTDYEMHWVRQAPGEGLEWMGAIDGETPDTAYSEKFKGRVTLTADKSTSTAYMELSSLTSEDTAVYYCTRFYSYTYWGQGTLVTVSSASTKGPSVFPLAPCSRSTSESTAALGCLVKDYFPEPVTVSWNSGALTSGVHTFPAVLQSSGLYSLSSVVTVPSSSLGTQTYTCNVDHKPSNTKVDKRVESKYGPPCPPCPAPEFRGGPKVFLFPPKPKDTLMISRTPEVTCVVVDVSQEDPEVQFNWYVDGVEVHNAKTKPREEQFASTYRVVSVLTVLHQDWLNGKEYKCKVSNKGLPSSIEKTISKAKGQPREPQVYTLPPSQEEMTKNQVSLTCLVKGFYPSDIAVEWESNGQPENNYKTTPPVLDSDGSFFLYSKLTVDKSRWQEGNVFSCSVMHEALHNHYTQESLSLSP light: DIVMTQSPLSLPVTPGEPASISCRSSQPLVHSNRNTYLHWYQQKPGQAPRLLIYKVSNRFSGVPDRFSGSGSGTDFTLKISRVEAEDVGVYYCGQGTQVPYTFGQGTKLEIKRTVAAPSVFIFPPSDEQLKSGTASVVCLLNNFYPREAKVQWKVDNALQSGNSQESVTEQDSKDSTYSLSSTLTLSKADYEKHKVYACEVTHQGLSSPVTKSFNRGEC	1.6
TR01H084-E2702GsKsc/GCH094-E2704sEpsc/L0011-k0 (bispecific antibody, human IgG4 S228P, kappa, N297A) heavy 1: QVQLVESGGGVVQPGGSLRLSCAASGFTFSNAWMHWVRQAPGKGLEWVAQIKDKSQNYATYYAESVKGRFTISRADSKNSIYLQMNSLKTEDTAVYYCRYVHYAAGYGVDIWGQGTTVTVSSASTKGPSVFPLAPCSRSTSESTAALGCLVKDYFPEPVTVSWNSGALTSGVHTFPAVLQSSGLYSLSSVVTVPSSSLGTKTYTCNVDHKPSNTKVDKRVESKYGPPCPPCPAPEFRGGPKVFLFPPKPKDTLMISRTPEVTCVVVDVSQEDPEVQFNWYVDGVEVHNAKTKPREEQFASTYRVVSVLTVLHQDWLNGKEYKCKVSNKGLPSSIEKTISKAKGQPREPQVYTLPPSQKEMTKNQVSLTCLVKGFYPSDIAVEWESNGQPENNYKTTPPVLDSDGSFFLYSKLTVDKSRWQEGNVFSCSVMHEALHNRYTQKSLSLSP heavy 2: QVQLVQSGAEVKKPGASVTVSCKASGYTFTDYEMHWVRQAPGEGLEWMGAIDGETPDTAYSEKFKGRVTLTADKSTSTAYMELSSLTSEDTAVYYCTRFYSYTYWGQGTLVTVSSASTKGPSVFPLAPCSRSTSESTAALGCLVKDYFPEPVTVSWNSGALTSGVHTFPAVLQSSGLYSLSSVVTVPSSSLGTQTYTCNVDHKPSNTKVDKRVESKYGPPCPPCPAPEFRGGPKVFLFPPKPKDTLMISRTPEVTCVVVDVSQEDPEVQFNWYVDGVEVHNAKTKPREEQFASTYRVVSVLTVLHQDWLNGKEYKCKVSNKGLPSSIEKTISKAKGQPREPQVYTLPPSQEEMTKNQVSLTCLVKGFYPSDIAVEWESNGQPENNYKTTPPVLDSDGSFFLYSKLTVDKSRWQEGNVFSCSVMHEALHNHYTQESLSLSP light: DIVMTQSPLSLPVTPGEPASISCRSSQPLVHSNRNTYLHWYQQKPGQAPRLLIYKVSNRFSGVPDRFSGSGSGTDFTLKISRVEAEDVGVYYCGQGTQVPYTFGQGTKLEIKRTVAAPSVFIFPPSDEQLKSGTASVVCLLNNFYPREAKVQWKVDNALQSGNSQESVTEQDSKDSTYSLSSTLTLSKADYEKHKVYACEVTHQGLSSPVTKSFNRGEC	1.2
TR01H082-E2702GsKsc/GCH094-E2704sEpsc/L0201-k0 (bispecific antibody, human IgG4 S228P, kappa, N297A) heavy 1: QVQLVESGGGLVQPGRSLRLSCAASGFTFSNAWMHWVRQAPGKGLEWVAQIKDKSQNYATYYAESVKGRFTISRDDSKNSLYLQMNSLKTEDTAVYYCRYVHYAAGYGVDAWGQGTTVTVSSASTKGPSVFPLAPCSRSTSESTAALGCLVKDYFPEPVTVSWNSGALTSGVHTFPAVLQSSGLYSLSSVVTVPSSSLGTKTYTCNVDHKPSNTKVDKRVESKYGPPCPPCPAPEFRGGPKVFLFPPKPKDTLMISRTPEVTCVVVDVSQEDPEVQFNWYVDGVEVHNAKTKPREEQFASTYRVVSVLTVLHQDWLNGKEYKCKVSNKGLPSSIEKTISKAKGQPREPQVYTLPPSQKEMTKNQVSLTCLVKGFYPSDIAVEWESNGQPENNYKTTPPVLDSDGSFFLYSKLTVDKSRWQEGNVFSCSVMHEALHNRYTQKSLSLSP heavy 2: QVQLVQSGAEVKKPGASVTVSCKASGYTFTDYEMHWVRQAPGEGLEWMGAIDGETPDTAYSEKFKGRVTLTADKSTSTAYMELSSLTSEDTAVYYCTRFYSYTYWGQGTLVTVSSASTKGPSVFPLAPCSRSTSESTAALGCLVKDYFPEPVTVSWNSGALTSGVHTFPAVLQSSGLYSLSSVVTVPSSSLGTQTYTCNVDHKPSNTKVDKRVESKYGPPCPPCPAPEFRGGPKVFLFPPKPKDTLMISRTPEVTCVVVDVSQEDPEVQFNWYVDGVEVHNAKTKPREEQFASTYRVVSVLTVLHQDWLNGKEYKCKVSNKGLPSSIEKTISKAKGQPREPQVYTLPPSQEEMTKNQVSLTCLVKGFYPSDIAVEWESNGQPENNYKTTPPVLDSDGSFFLYSKLTVDKSRWQEGNVFSCSVMHEALHNHYTQESLSLSP light: DIVMTQSPLSLPVTPGEPASISCRSSQPPVHSNRNTYLHWYQQKPGQAPRLLIYKVSNRFSGVPDRFSGSGSGTDFTLKISRVEAEDVGVYYCGQGTQVPYTFGQGTKLEIKRTVAAPSVFIFPPSDEQLKSGTASVVCLLNNFYPREAKVQWKVDNALQSGNSQESVTEQDSKDSTYSLSSTLTLSKADYEKHKVYACEVTHQGLSSPVTKSFNRGEC	1.1
TR01H084-E2702GsKsc/GCH065-E2704sEpsc/L0011-k0 (bispecific antibody, human IgG4 S228P, kappa, N297A) heavy 1: QVQLVESGGGVVQPGGSLRLSCAASGFTFSNAWMHWVRQAPGKGLEWVAQIKDKSQNYATYYAESVKGRFTISRADSKNSIYLQMNSLKTEDTAVYYCRYVHYAAGYGVDIWGQGTTVTVSSASTKGPSVFPLAPCSRSTSESTAALGCLVKDYFPEPVTVSWNSGALTSGVHTFPAVLQSSGLYSLSSVVTVPSSSLGTKTYTCNVDHKPSNTKVDKRVESKYGPPCPPCPAPEFRGGPKVFLFPPKPKDTLMISRTPEVTCVVVDVSQEDPEVQFNWYVDGVEVHNAKTKPREEQFASTYRVVSVLTVLHQDWLNGKEYKCKVSNKGLPSSIEKTISKAKGQPREPQVYTLPPSQKEMTKNQVSLTCLVKGFYPSDIAVEWESNGQPENNYKTTPPVLDSDGSFFLYSKLTVDKSRWQEGNVFSCSVMHEALHNRYTQKSLSLSP heavy 2: QVQLVQSGAEVKKPGASVTVSCKASGYTFTDYEMHWIRQPPGEGLEWIGAIDGPTPDTAYSEKFKGRVTLTADKSTSTAYMELSSLTSEDTAVYYCTRFYSYTYWGQGTLVTVSSASTKGPSVFPLAPCSRSTSESTAALGCLVKDYFPEPVTVSWNSGALTSGVHTFPAVLQSSGLYSLSSVVTVPSSSLGTQTYTCNVDHKPSNTKVDKRVESKYGPPCPPCPAPEFRGGPKVFLFPPKPKDTLMISRTPEVTCVVVDVSQEDPEVQFNWYVDGVEVHNAKTKPREEQFASTYRVVSVLTVLHQDWLNGKEYKCKVSNKGLPSSIEKTISKAKGQPREPQVYTLPPSQEEMTKNQVSLTCLVKGFYPSDIAVEWESNGQPENNYKTTPPVLDSDGSFFLYSKLTVDKSRWQEGNVFSCSVMHEALHNHYTQESLSLSP light: DIVMTQSPLSLPVTPGEPASISCRSSQPLVHSNRNTYLHWYQQKPGQAPRLLIYKVSNRFSGVPDRFSGSGSGTDFTLKISRVEAEDVGVYYCGQGTQVPYTFGQGTKLEIKRTVAAPSVFIFPPSDEQLKSGTASVVCLLNNFYPREAKVQWKVDNALQSGNSQESVTEQDSKDSTYSLSSTLTLSKADYEKHKVYACEVTHQGLSSPVTKSFNRGEC	1.3

Reference: patent US20170267783A1 (published 2017)
